Experimental findings from PMC6315854, “Cloning, Expression and Characterization of a Novel Cold-adapted β-galactosidase from the Deep-sea Bacterium Alteromonas sp. ML52” (Marine Drugs, 2018) are described below.

In the data set the test system is O=[N+]([O-])c1ccccc1O[C@@H]1O[C@H](CO)[C@H](O)[C@H](O)[C@H]1O. In words: purified protein. The following applies: 35 °C, 50 mM sodium phosphate pH 8, ONPG 0.1–5 mM.

Turning to “recombinant Gal (β-galactosidase) (Alteromonas sp.)”, the Michaelis-Menten constant (Km) is 140 µM, the maximal velocity (Vmax) is 465 µmol/min/mg, the turnover number (kcat) was determined as 3690 s⁻¹ and the kcat/Km was determined as 2.63e+07 M⁻¹ s⁻¹.
